{
  "source": "patent US20250152627A1",
  "about": "(published 2025)",
  "key": {"[1]": {"target": "IgK leader-ALFA Tag-RR Zip-Myc Tag-PDGFRβ TM-sfGFP", "assay": "flow cytometry cell binding"}, "[2]": {"target": "IgK leader-ALFA Tag-RR Zip-Myc Tag-PDGFRβ TM-sfGFP", "assay": "flow"}},
  "data": [
    {"binder": "BT4244-35 aa Linker-EE Zip (enzyme) FSISEEYLIQNLDKSSTSVQIPINTSMELAQWSVSYEANWLQCSKQKTAAEGTFLRITVNENTGETKRTANIKVTSTTATYTITVNQYAKGEVIVEGDIKVTPTGGKASEHQEGQDIENTYDGKFSTDGAAPFHTPWGQSAKFPVTLEYYFKGDTEIDYLIYYTRSGNGNFGKVKVYTTTNPDRSDYTLQGEYDFKEQNAPSKVSFSEGIKATGIKFEVLSGLGDFVSCDEMEFYKTNTDKTLDKQLLTVFTDITCTEIKNNVTNEQIQALPDYFVRIAEAVRDNTYDKWEKEFRIRSYEPYSNIAEWADKLMTKKYSDLDNPTGISVKAGDDIIVLVGDTYGQNISMQCIWETGTEYKQTASSGDVYMLNPGVNKLTMKGEGQLFVMYNTELTSNTAKPIKIHIPLGSGTVNGFFDLKEHKTDEKYAELLKKSTHKYFCIRGEKIMFYFHRNKLLEYVPNNILSAIHLWDNIVGWQQELMGIDDVRPSQVNNHLFAISPEGSYMWASDYQIGFVYTYLGNILLEDNVMAAEDNAWGPAHEIGHVHQAAINWASSTESSNNLFSNFIIYKLGKYKSRGNGLGSVATARYANGQAWYNMGDATHQNEDTETHMRMNWQLWIYYHRCEYKTDFWQTLFKLMREVNMTEGEDPGKKQLEFAKMASKAANQNLTDFFEMWGFFEPVNTTIEQYGTYKYYVSDAMIREAKEYMAQFPAPKHAFQYIEDRKKSEFPSNDYRYSAVGDVGYYTQFKENQKITKAITAELAGRKVSIQNGDEAVAFELRENDENGKLLYFSTFTTFEIPSSILMGGGGSGGGGSGGGGSGGGGSGGGGSGGGGSGGGGSMDPDLEIEAAFLERENTALETRVAELRQRVQRLRNRVSQYRTRYGPLGGGK", "values": [
      {"measurement": "Kd", "setting": "[1]", "value": "~2.54", "unit": "nM"}
    ]},
    {"binder": "AM0627-35 aa Linker-EE Zip (enzyme) ANTPEHIGNDLKLFKDSSCTSLKPDVKNTSAFQSDAMKELATKILAGHYKPDYLYAEYRALPSPRQTGKNLRIGDGFSKYDNMTGVYLEKGRHVVLVGKTEGQEISLLLPNLMRKPAEGVQPTKDPNGWGLHKKQIPLKEGINIIDVETPANAYISYFTEDAGKAPKIPVHFVTGKANGYFDTTRGDTNKDWVRLLDQAVSPIMDARGKYIQVAYPVEFLKKFTKDRGTELINAYDKLIGIQYQLMGLDKYGKIPENRVLARVNFNYYMFRDGDGVAYLGNDGTMRMVTDPENVLKGDACWGFSHEVGHVMQMRPMTWGGMTEVSNNIFSLQAAAKTGNESRLKRQGSYDKARKEIIEGEIAYLQSKDVFNKLVPLWQLHLYFTKNGHPDFYPDVMEYLRNNAGNYGGNDTVKYQFEFVKACCDVTKTDLTDFFEKWGFFKPGKFHIGDYAQYDFNVTPEMVEETKKWIAGKGYPKPETDITELSEGGGGSGGGGSGGGGSGGGGSGGGGSGGGGSGGGGSMDPDLEIEAAFLERENTALETRVAELRQRVQRLRNRVSQYRTRYGPLGGGK", "values": [
      {"measurement": "Kd", "setting": "[1]", "value": "~0.45", "unit": "nM"}
    ]},
    {"binder": "StcE ΔX409-35 aa Linker-EE Zip (enzyme) ADNNSAIYFNTSQPINDLQGSLAAEVKFAQSQILPAHPKEGDSQPHLTSLRKSLLLVRPVKADDKTPVQVEARDDNNKILGTLTLYPPSSLPDTIYHLDGVPEGGIDFTPHNGTKKIINTVAEVNKLSDASGSSIHSHLTNNALVEIHTANGRWVRDIYLPQGPDLEGKMVRFVSSAGYSSTVFYGDRKVTLSVGNTLLFKYVNGQWFRSGELENNRITYAQHIWSAELPAHWIVPGLNLVIKQGNLSGRLNDIKIGAPGELLLHTIDIGMLTTPRDRFDFAKDKEAHREYFQTIPVSRMIVNNYAPLHLKEVMLPTGELLTDMDPGNGGWHSGTMRQRIGKELVSHGIDNANYGLNSTAGLGENSHPYVVAQLAAHNSRGNYANGIQVHGGSGGGGIVTLDSTLGNEFSHEVGHNYGLGHYVDGFKGSVHRSAENNNSTWGWDGDKKRFIPNFYPSQTNEKSCLNNQCQEPFDGHKFGFDAMAGGSPFSAANRFTMYTPNSSAIIQRFFENKAVFDSRSSTGFSKWNADTQEMEPYEHTIDRAEQITASVNELSESKMAELMAEYAVVKVHMWNGNWTRNIYIPTASADNRGSILTINHEAGYNSYLFINGDEKVVSQGYKKSFVSDGQFWKERDVVDTREARKPEQFGVPVTTLVGYYDPEGTLSSYIYPAMYGAYGFTYSDDSQNLSDNDCQLQVDTKEGQLRFRLANHRANNTVMNKFHINVPTESQPTQATLVCNNKILDTKSLTPAPEGLTYTVNGGGGSGGGGSGGGGSGGGGSGGGGSGGGGSGGGGSMDPDLEIEAAFLERENTALETRVAELRQRVQRLRNRVSQYRTRYGPLGGGK", "values": [
      {"measurement": "Kd", "setting": "[2]", "value": "~3.09", "unit": "nM"}
    ]}
  ]
}
